The target of data set [1] is T1, VapB15 (Synechocystis sp. PCC 6803) (UniProt P74009).
T1 sequence: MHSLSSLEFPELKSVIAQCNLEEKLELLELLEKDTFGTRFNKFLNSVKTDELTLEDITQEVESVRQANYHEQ
Description: EMSA. As to conditions: 100 mM Tris-HCl pH 8.0, 100 mM NaCl, 1 mM DTT, 10% glycerol, 0.1 mg/mL sonicated salmon sperm DNA, 25 C, 30 min; 5% native PAGE in 0.5x TBE. A general note: In EMSA bound probe runs differently from free probe, usually more slowly.

Data set [2] addresses T2, VapB15;VapC15-His6 (Synechocystis sp. PCC 6803;Synechocystis sp. PCC 6803) (UniProt P74009+P74010).
T2 sequence 1: T1 sequence
T2 sequence 2: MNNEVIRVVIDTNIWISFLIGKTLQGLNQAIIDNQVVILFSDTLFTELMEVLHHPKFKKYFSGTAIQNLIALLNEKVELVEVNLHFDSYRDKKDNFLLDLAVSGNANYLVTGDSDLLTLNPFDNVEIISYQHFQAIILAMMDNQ
Description: EMSA.

Take “GAAATTCCAGTGATGACAATGAGTGCATTTCAACTTTTCTCCGAGAGGCGAATTATAACTCCCATTATCACATTTCCAAATAGTGCCCCAAGGAGTTGCTTGAAAAGTCCCC (double strand) [P2 (3' half of PS1 and whole PS2)]”: in data set [1], the binding entry is on record as “no binding”.
On to “CAAAGCTCTGGCAACCCTGCAGAACTTTAAACCTATCCCCCTAGGCTTGGGGCCAGGGGACTTTTCAAGCAACTCCTTGGGGCACTATTTGGAAATGTGATAATGGGAGTTATAATTCGCCTCTCGGAGAAAAGTTGAAATGCACTCATTGTCATCACTGGAATTTC (double strand) [P1 (PvapBC15 promoter, PS1 and PS2)]”, for which the figures for the binding result in data set [1] and in data set [2] were “binds” and “binds more weakly”, respectively.
